For orientation: Kd means the constant that tells how readily two partners part at equilibrium. A higher Kd goes with lower affinity.

Common to all, as to experiment: fluorescence anisotropy
What all share (settings): Hill slope fit; 10 nM 6-FAM ssDNA, 0.001-6 uM protein, 20 min at 30 C, read at room temperature; binding buffer not stated (protein storage FP buffer: 200 mM NaCl, 50 mM …)

The subject of data set [1] is condensin holocomplex, Smc4-L1333V-L1335A (Saccharomyces cerevisiae (overexpressed in strain D1074)).
Data set [2] relates to condensin holocomplex, Smc4-L1333I-L1335A (Saccharomyces cerevisiae (overexpressed in strain D1074)).
In data set [3] the test system is condensin holocomplex, Smc4-A1376S-Q1377A (Saccharomyces cerevisiae (overexpressed in strain D1074)).
Data set [4] concerns condensin holocomplex, wild-type Smc4 (Saccharomyces cerevisiae (overexpressed in strain D1074)).
For data set [5], the system named is condensin holocomplex, Smc4-L1335A (Saccharomyces cerevisiae (overexpressed in strain D1074)).
Data set [6] concerns condensin holocomplex, Smc4-K191M (Saccharomyces cerevisiae (overexpressed in strain D1074)).
Data set [7] relates to condensin holocomplex, Smc4-Q1377A (Saccharomyces cerevisiae (overexpressed in strain D1074)).

As for 6-FAM 60-nt ssDNA, the Kd in data set [1] amounted to 148 nM; in data set [2], 92.8 nM; in data set [3], 171 nM; in data set [4], 252 nM; in data set [5], 193 nM; in data set [6] it was 76.7 nM. The substance also yielded a Kd in data set [7] of 216 nM.
